The target of experiment [1] is CCR5 on CF2.CD4.CCR5 cells (Homo sapiens (Human)) (UniProt P51681).
For experiment [2], the target named is CD4 on CF2.CD4.CCR5 cells (Homo sapiens (Human)) (UniProt P01730).

Take JR-FL SOS gp120/gp41 trimer: the infection of CF2.CD4.CCR5 target cells in experiment [1] and in experiment [2] was 100 % of mock in each case.

For the origin of these results see patent publication US20130101617A1.
